This note sets out measurements from the nanobody polyreactivity screen of Harvey et al. (2022).

This data set in a line: yeast display, Sf9 membrane polyspecificity reagent, FACS + sequencing; frameworks hold sequencing errors. In short, it runs like this:
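A synthetic nanobody library was expressed on Saccharomyces cerevisiae BJ5465 by galactose induction for 36–48 hours. The library was stained for 1 hour at 4 °C with 10% biotinylated, detergent-solubilized Sf9 membrane reagent and enriched with streptavidin microbeads before FACS. Low and high (top ~1%) gates were set on anti-HA fluorescence for expression and streptavidin fluorescence for reagent binding, and each polyreactivity label reflects the gate of origin.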
With “QVQLVESGGGLVQAGGSLRLSCAASGSTFRGYTMGRNRQAPGKERELVAAISFRGTSTYYADSVKGRFTISRDNAKITVYLQMNSLIPEDTAVDYCAAVYTWGPGYGHDYWGQGTQVTVSS”, the “polyreactivity (PSR sort gate)” value is recorded as “low polyreactivity”. To “QVQLVESGGGLVQAGGSIRLSCSASGRIFNRNAMGWYRKAPGKERELVAAISSDTSTNYADSVKGRFTISRDNAKNNVYLQMNSLKPEDTAVYYCNADGYYDMDYWGQGTQVTVSS” belongs “low polyreactivity”; to “QVQLVESGGGLVQAGGSLRLSCAASGLIFWRYDMGWYRQAPGKERELVAVITSGGNTYYADAVKGRFRISRDNAKNTVYLQMNSLKPEDTAVYYCNADTWRDDYDYWGQGTQVTVAS”, “low polyreactivity”. As for “QVQLVESGGGLVQAGVSLRLSCAASGFIFGLYVMGWYRQSPGKERELVAGITWTGGTTYYADSVKGRFTISRDNAKNTVYLQMNSLKPEDTAVYYCATRNYAVVPSVRREGYYWGQGTQVTVSS”, the “polyreactivity (PSR sort gate)” value was “low polyreactivity”.

Consider “QVQLVESGGGLVQAGGSLRLSCAASGSTFYRYDMGWYRQAPGKERELVAAITSVGSTKYADSVKGRFTISRDNAKNTVYLQMNSLKPEDNAVYYCNVDYIDWGQWYTNYPLSGYDYWGQGTQVTVSS”, for which the “polyreactivity (PSR sort gate)” value is given as “low polyreactivity”. Regarding “QVQLVESGGGLVQAGGSLRLSCAASGSIFGNYAMGWYRQAPGKEREFVARISRGARTYYADSVKGRFTISRDNAKNTVYLQMNSLKPEDTAVYYCNARDYSVSYSVRFDYWGQGTQVTVSS”, the “polyreactivity (PSR sort gate)” value is “high polyreactivity”. The entry for “QVQLVESGGGLVQAGGSLRLSCAASGFIFGINAMGWYRQAPGKERELVATITSGGGTNYADSVKGRFTISRDNAKNTVYLQMNSLKPEDTAVYYCAAEEDYIYFYVSMDYWGQGTQVTVSS” is “low polyreactivity”. The entry for “QVQLEESGGGLVKAGGSIRLSCAASGLIFYSYAMVWYRHAPGKERELVAVITRSGGNTNYADSVKGRFTISRDNAKNTVYLQMNSRKPEDTAVYYCATRGIWKKVPYYYWGQGTQVTVSS” is “high polyreactivity”; for “QVQLVESGGGLVQAGGRLRLSCAASGSTFLQNAMGWYRQAPGKEREFVAAISRSGGSTYYADSVKGRFTISRDNAKNTVYLQMNSLKPEDTAVYYCARRYWPGSAYWIYDYWGQGTQVTVSS” it is “high polyreactivity”; for “QVQLQEIGGGLVQAGGSLRLSCAASGYIIPYYSMRWYRQAPGKERGLVACIAAGTTTNFADCVKGRFTISRDNAKNTVYLQMNSLKPEDAAVYFCAALNAFKTGDWYWGQGTQVTVSS” it is “low polyreactivity”. The entry for “QVHLLESGGGLVQAGGSLRLSCAASGRTFYDYTMGWYRQAPGKERELVAVISKRGGSTYYADSVKGRFTISRDNAKNTVYLQMNSLKPEDTAVYYCAAKSGRNVYQKVDYWGQGTQVTVSS” is “high polyreactivity”; for “QVQLVESGGGLVQAGGSLRLSCAASGRIFATNAMGWYRPAPGKERELVATITRSAGRTYYADSVKGRFTISRDNAKNTVYLQMNSLKPEDTAVYYCAASYWDTEPGYREYDYWGQGTQVTVSS” it is “low polyreactivity”; for “QVQLVESGGGLVQSGGSLRLSCAASGFIFPVYTLGWYRHAPGKERELDAAITQIGGSTHYADSVKGRFTISRDNAKNTVYLQMNSLKPEDTAVFYCKAVPSYGTEYDYWGQGTQVTVSS” it is “low polyreactivity”. In the case of “QVQLQESGGCLVQAGGSLRKSCAASGNIFDADIMGWYRQAPGKERELVASITDGRRTNYADSVKGRYTISRDSENNTVYLQLNSLKAEDTAVYYCAAIAYPVVPTYFDYDSDFFHWGQGTQVTVSS”, the “polyreactivity (PSR sort gate)” value is “high polyreactivity”. To “QVQLVESGGGLVQAGGSLRLSCAASGLIIRWYAMGWYRQAPGKERELVAAITRAGSTNYADSVKWRFTISRDNAKNTVYLQMNSLKPEDTAVYYCAAVAVELASEYDYWGQGTQVTVSS” belongs “low polyreactivity”; to “QVQLVESGGGLVQAGGSLRLSCAASGSTFSRYAMGWYRQAPGKERELVAAITRSGGSTYYADSVKGRFTISRDNAKNTVYLQMNSLKPEDTAVYYCAASRGRGGYGFDYWGQGTQVTVSS”, “high polyreactivity”.
